Results on 2 variants are retold here after IntAct's records for PubMed 19375531.

B1: AH receptor-interacting protein (Homo sapiens), O00170 (parent)
chain: MADIIARLREDGIQKRVIQEGRGELPDFQDGTKATFHYRTLHSDDEGTVLDDSRARGKPMELIIGKKFKLPVWETIVCTMREGEIAQFLCDIKHVVLYPLVAKSLRNIAVGKDPLEGQRHCCGVAQMREHSSLGHADLDALQQNPQPLIFHMEMLKVESPGTYQQDPWAMTDEEKAKAVPLIHQEGNRLYREGHVKEAAAKYYDAIACLKNLQMKEQPGSPEWIQLDQQITPLLLNYCQCKLVVEEYYEVLDHCSSILNKYDDNVKAYFKRGKAHAAVWNAQEAQADFAKVLELDPALAPVVSRELRALEARIRQKDEEDKARFRGIFSH

In this experiment the parent is B1. As to conditions: with hs90b_human HSP90AB1, P08238.
hs90b_human HSP90AB1, P08238, sequence (P08238 whole entry): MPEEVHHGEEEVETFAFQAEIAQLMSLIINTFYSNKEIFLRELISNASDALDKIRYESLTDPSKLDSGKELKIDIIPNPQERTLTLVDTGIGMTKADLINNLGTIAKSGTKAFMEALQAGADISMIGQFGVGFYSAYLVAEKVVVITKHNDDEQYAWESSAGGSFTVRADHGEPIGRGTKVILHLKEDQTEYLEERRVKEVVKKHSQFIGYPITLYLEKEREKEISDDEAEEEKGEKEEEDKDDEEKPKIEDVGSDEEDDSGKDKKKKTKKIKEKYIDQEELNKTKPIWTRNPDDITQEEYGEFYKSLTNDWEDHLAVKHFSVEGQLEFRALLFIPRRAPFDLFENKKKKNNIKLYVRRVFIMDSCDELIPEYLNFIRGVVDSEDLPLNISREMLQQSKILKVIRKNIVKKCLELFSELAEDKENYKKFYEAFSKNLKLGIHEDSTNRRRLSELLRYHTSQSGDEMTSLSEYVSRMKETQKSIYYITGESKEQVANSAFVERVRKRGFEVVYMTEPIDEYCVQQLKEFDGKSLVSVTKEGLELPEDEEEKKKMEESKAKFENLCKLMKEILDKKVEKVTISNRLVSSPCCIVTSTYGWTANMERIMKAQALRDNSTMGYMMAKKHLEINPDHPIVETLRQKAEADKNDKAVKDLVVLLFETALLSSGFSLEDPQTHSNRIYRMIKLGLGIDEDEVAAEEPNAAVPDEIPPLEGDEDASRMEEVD
Regarding R271A, the “effect of a mutation on the interaction” value is given as “disrupting interaction”.
As for K266A, the “effect of a mutation on the interaction” value is listed as “disrupting interaction”.
